Target: T1, SARS-CoV-2 刺突ECD蛋白 (Sinobiological) (SARS-CoV-2, UniProt P0DTC2 14-1213)
T1 construct: extracellular domain; also called Spike ECD蛋白
Test: ELISA, spike ECD coated 50 ng/well, antibody titrated

B1: A70抗体 (antibody, V domains shown)
VH: QITLKESGPTLVKPTQTLTLTCTFSGFSLDTPGVAIGWIRQPPGRALEWLGLIYWDGDERYNPSLTSRVTLTKDTSKNQVVLTMTNVDSVDTGTYFCGHKTIPTIFGVWGQGAPVTVSS
VL: QSALTQPASVSGSPGQSITISCAATSGDFGVFNYVSWYQQHPGKAPKLIIFEVSSRPSGVSNRFSGSKSGNTASLTVSGLQAEDEAVYHCSSYSTSSVVFGGGTKLTVL
notes: also called 抗体A70
Question: B1 was tested. Which EC50 did it give?
Answer: 0.0351 µg/mL

B2: A46抗体 (antibody, V domains shown)
VH: EVQLLESGGGLIQPGGSLRLSCAVSEFIVSRNYMSWVRQAPGKGLEWVSVLYPGGSTFYADSVKGRFTISRDESTNTLFLQMNTLRVEDTAVYYCARDFGDFYFDFWGQGTLVTVSS
VL: EIVLTQSPGTLSLSPGQRAALSCRASQSVSTYLAWYQQKPGQAPRLLIHDASSRASGVPDRFSGTGSGTDFTLTITRLEPEDFAVYYCQQYGTSPRTFGQGTKLEIK
notes: also called 抗体A46
Question: B2 was tested. Which EC50 did it give?
Answer: 0.0261 µg/mL
